Source: patent US8399416B2, “Method of using heparin binding motif for treating asthma” (National Tsing Hua University, priority 2008, dated 2013)

Tests used:
Beas-2B cell line = experiment: MTT cytotoxicity assay of ECP; format: cell-based, human; details: 37° C. 48 h, read-out: IC50 for cytotoxic ECP
Method: FIG. 12. Cytotoxicity of wild-type and mutant ECP. Beas-2B cells were incubated with increasing concentrations of wild-type and mt1 ECP at 37° C. for 48 h, followed by the MTT assay. The error bars show standard deviation among triplicate experiments.
The inhibition of lymphocyte and mammalian cell growth by ECP has been reported (Fan, T. C., et al. (2007) Traffic 8, 1778-1795; Maeda, T., et al. (2002) European Journal of Biochemistry 269, 307-316). As a physiological test, the cytotoxicity of ECP mt1 was monitored by MTT assay. The effect of ECP on the cell growth was determined by a colorimetric assay using 3-(4,5-dimethylthiazol-2-yl)-2,5-diphenyltetrazolium bromide (MTT) (US Biological, MA, USA). Cells were plated in a 96-well plate (5000 cells/well) and incubated at 37° C. overnight. Each sample was incubated with the indicated concentration (1-100 μM) of ECP. Forty-eight hours after treatment with ECP, MTT was added, and cell growth was monitored at A570 to measure the mitochondrial-dependent formation of a colored product.

Beas-2B cells = experiment: Cell ELISA of MBP-ECP and MBP-ECP mt1 binding to cells; format: cell-based, human; details: MBP-ECP mt1 relative to MBP-ECP; 1 h at 4° C.

B1: ECP mt1: ECP mutant with R34A/W35A/R36A/K38A substitutions (protein, UniProt P12724 28-160, looked up, variant R34A W35A R36A K38A)
Eosinophil cationic protein: RPPQFTRAQWFAIQHISLNPPRCTIAMRAINNYAAACANQNTFLRTTFANVVNVCGNQSIRCPHNRTLNNCHRSRFRVPLLHCDLINPGAQNISNCTYADRPGRRFYVVACDNRDPRDSPRYPVVPVHLDTTI
With B1 the IC50 (Beas-2B cell line) was 38.5 µM and the cell-binding activity (Beas-2B cells) was 50%.
